One block for each substance: values may come before it.
Columns and labels:
[1] = biological target: murine MSH receptor (mouse) (UniProt Q01727); assay: competition binding of cold ACTH against 125I-ACTH1-39 on Cloudman M-3 melanoma cells
rat MC3-R (rat) = rat MC3-R (rat) (UniProt P32244); assay: cell-based or functional assay
[2] = biological target: HEK-293 clones transfected with hMC1R, hMC3R or hMC5R; assay: radioligand binding with 125I-NDP-α-MSH on transfected HEK-293 clones

Chain of rat MC3-R (rat) (P32244 whole entry): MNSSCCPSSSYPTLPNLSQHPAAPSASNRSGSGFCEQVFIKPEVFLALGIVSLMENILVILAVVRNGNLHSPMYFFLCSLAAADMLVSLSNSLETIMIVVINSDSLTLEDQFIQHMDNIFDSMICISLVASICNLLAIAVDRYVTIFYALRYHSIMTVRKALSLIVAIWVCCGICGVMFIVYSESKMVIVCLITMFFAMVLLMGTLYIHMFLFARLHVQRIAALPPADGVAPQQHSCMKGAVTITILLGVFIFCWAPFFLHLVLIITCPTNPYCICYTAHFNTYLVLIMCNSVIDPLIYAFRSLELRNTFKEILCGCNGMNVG
Chain of adrenocorticotropic hormone (unlabelled) (peptide) (P01189 138-176): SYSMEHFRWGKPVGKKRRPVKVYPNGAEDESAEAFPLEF
Chain of murine MSH receptor (mouse) (Q01727 whole entry): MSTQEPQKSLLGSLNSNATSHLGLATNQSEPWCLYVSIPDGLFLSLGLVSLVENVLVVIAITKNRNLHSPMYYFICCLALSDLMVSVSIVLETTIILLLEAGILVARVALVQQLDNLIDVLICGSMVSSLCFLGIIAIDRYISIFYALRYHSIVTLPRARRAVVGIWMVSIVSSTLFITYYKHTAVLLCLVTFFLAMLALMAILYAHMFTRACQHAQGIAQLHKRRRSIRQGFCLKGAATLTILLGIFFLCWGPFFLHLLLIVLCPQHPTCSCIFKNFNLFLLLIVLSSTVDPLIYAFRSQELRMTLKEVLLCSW

- Kd [1]: 63 nM
Substance: adrenocorticotropic hormone (unlabelled) (peptide)

- EC50 for adenylyl cyclase activation, rat MC3-R in 293 cells, α-MSH alone (rat MC3-R (rat)): 4.2 nM
- EC50 for adenylyl cyclase activation, rat MC3-R in 293 cells, α-MSH plus 0.7 nM murine agouti (rat MC3-R (rat)): 4.1 nM
Substance: α-melanocyte-stimulating hormone (from UniProt P01189 138-150) (peptide)

- Ki [2]: 0.11 to 0.58 nM
Substance: 125I-labeled Nle,D-Phe (NDP)-α-MSH (from UniProt P01189 138-150) (peptide)
